Assay: yeast display, Sf9 membrane polyspecificity reagent, FACS + sequencing; frameworks hold sequencing errors
How it was run: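 Polyreactivity labels are assigned by the sorting gate from which each nanobody was recovered. The gates were low and high (top ~1%), set on anti-HA fluorescence for expression and streptavidin fluorescence for reagent binding. Before sorting, galactose-induced (36–48 hours) yeast display cells were stained for 1 hour at 4 °C with 10% biotinylated, detergent-solubilized Sf9 membrane reagent.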

Sequence: QVQLVESGGGLVQAGGSLRLSCAASGFTIPTYTMGWYRQAPGKEREFVARITKRGGSTYYADSVKGRFTISRDNAKNTVYLQMNGLKPEDTAVYYCNARRYGKVVRSRYNYWGQGTQVTVSS
- polyreactivity (PSR sort gate): high polyreactivity

Sequence: QVQLVESGGGLVQAGGSLRLSCAASGRTFRSYTMGWYRQAPGKERELVASITRSGVSTYYADSVKGRFTISRDNAKNTVYLQMNSLKPEDTAVYYCAAYSVFRSYDYWGQGTQVTVSS
- polyreactivity (PSR sort gate): high polyreactivity

Sequence: QVQLVESGGGLVQAGGSLRLSCAASGSTARYAMGWNRQAPGKERELVAAITGRTGRTNYADSVKGRFTISRDNAKITVYVQMNSLKPEDTAVYYCAKRAWRAVRWTYGYWGQGSQVTVSS
- polyreactivity (PSR sort gate): high polyreactivity

Sequence: QVQLVESGGGLVQAGGSLRLSCAASGSIFNRYAMGWYRQAPGKERELVAAISTHTGTTYYADSVKGRFTISRDNAKNTDYLQMNSLKPEDTAGYYCAKRSRYGYGKSYDYWGQGTQVTVSS
- polyreactivity (PSR sort gate): high polyreactivity

Sequence: QVQLVESGGGLVQAGGSLRLSCAPSGITFRVNAMGWYRQAPGKERELVASISRSGGSTYYADSVKGRFTISRDHAKNNVYLQMKSLKPEDTAVYYCADAQKVLFYGRWFDYWGQCTQVTVSS
- polyreactivity (PSR sort gate): low polyreactivity

Sequence: QVQLVDSGGGLVQAGGSLRLSCAASGRTIWRNAMGWYRQAPGKERELVAAIRWSGGRTYADSVKGRFTISRDKAKNTVYLQMNILKPEDTAVYYCNARGLSDWTLKLDYWGQGTQVTVSS
- polyreactivity (PSR sort gate): low polyreactivity

Sequence: QVQLVESGGCLVQAGGSLRLSCAASGRIFRDKAMGWYRQAPGKEREFVARITISTGTTYYADSVKGRFTISRDNAKNTGYLQKNSLKPADTAVYYCAALYTDSYLTSPVSYRYDYWGQGTQVSVSS
- polyreactivity (PSR sort gate): low polyreactivity

Sequence: QVQLVESGGGLVQAGGSLRLSCAASGFIFDAYALGWYRQAPGKERELVAAITRGNTYYADSVKGRFTISRDNAKNTVYLQMNSLKPEDTAVYYCAARYWQSYRSQVTHSSTLDYWGQGTQVTVSS
- polyreactivity (PSR sort gate): low polyreactivity

Sequence: QVQLVESGGGLVQAGGSLRLTCAASGRIFDRYVMGWYRQAPGKERELVAAITFSGGRTYYADSVKGRFTISRDNAKNTVYLQMNSLKPEDTAVYYCNRVYYQKIYDYWGQGTQVTVSS
- polyreactivity (PSR sort gate): high polyreactivity

Sequence: QVQLVESGGGLLQAGGSHRLSCAASGILVYNAMGWYTQAPGKERELVAAISARGGRTYYADSVKGRFTISRDNAKNTVYLQMNSLKPEDSAVYYCATLETTGVNYWGQGTQVTVSS
- polyreactivity (PSR sort gate): high polyreactivity

Sequence: QLQLVESGGGLVQAGGSLRLSCAASGFTFYRYAKGWYRQAPGKARELVAAISWSGGTTYFADSVKGRFTISRDNAKNTVYLQMNSLTPEDTAVEYCNARFIARSGYKVDYDYWGQGTQVTVSS
- polyreactivity (PSR sort gate): high polyreactivity

Sequence: QVQLVESGGGLVQAGGSLRLSCAASGRTFLRNAMRWYRQAPGKERELVATISIGGRTYYADSVKGRFTISRDNAKNTVYLQMNSLKPEDTAVYYCNASTSILSLDWEYGSWGQGTQVTVSS
- polyreactivity (PSR sort gate): low polyreactivity

Sequence: QVQLVESGGGLVQAGGSLRLSCAASGRIFGFNALGWYRQAPGKEREFVAAMSGNGGSTYYADSVKGRFTISRDTAKNTVYLPMLSLNPEDTADYYSAASVHATYFSGARHWVKLYDWRQGTQVTVSS
- polyreactivity (PSR sort gate): high polyreactivity

Sequence: QVQLVESGGGLVQAGGSLLLSCAASGGTFGGYTMGWYRQAPVKERELVAAITRSGSSTFYADSVKGRFTISRDNAKNTVYLQMNSLKPEDTAVYYCAALWHAVFYADYDYWGQGTQVSVSS
- polyreactivity (PSR sort gate): high polyreactivity

Sequence: QVQLVESGGGLVQAGGSLRLSCAASGRIFKYNAMGWYRQAPGKERELVAVISFSGGSTYYADSVKGRFTISRDNAKNTVYLQMNSLKPEDTAVYYCNVRQHYSRRLKKWQMDCWGQGTQVTVSS
- polyreactivity (PSR sort gate): high polyreactivity

Sequence: QVQLVESGGGLVQAGGSLRLSCADSGRTFRRYKMGWYRQAPGKERELVATISSGGSTYADSVKGRFTISRDNAKNTVYLQMNSLKPEDTAVYYCAARYDVAWYSKRYSWGQGTQVTVSS
- polyreactivity (PSR sort gate): high polyreactivity

Sequence: QVQLVESGGGLVQAGGSLRLSCAASGRTFPSYAMGWYRQSPGKERELVAAITVSGGNTYYADSVKGRFTISRDNAKNTVYLQMNSLKPEDTAVYYCNTASYVSWYVHYYYWGQGTQVTVSS
- polyreactivity (PSR sort gate): low polyreactivity

Sequence: QVQLVESAGGLVQAGGSLRLSCAASGNTFYPYAMGWYRQAPGKERELVAAITSVGRTYYADSVKGRFTITRDNAKNTVYLQMNSLKPEDTAVYYCAAVVYYRGYTYNYWGQGTQVTVSS
- polyreactivity (PSR sort gate): high polyreactivity

Sequence: QVQLVESGGGLVQAGGSLRLSCAASGFILNAYTMGWYRQAPGKERELVATITINGGSTYYADSVKGRFTISRDNAKNTVYLQMNSLKPEDTPVYYCNADYWYKYDYWGQGTQVTVSS
- polyreactivity (PSR sort gate): low polyreactivity

Sequence: QVQLVESGGGLVQAGGSLRLSCAASGRTFEYYAMGWYRQAPGKERELVAAITYSGDSTYYADSVKGRFTISRDNAKNTVYLQMNSLKPEDTAVYYCAADWSSLKDDYWGQGTQVTVSS
- polyreactivity (PSR sort gate): low polyreactivity

Sequence: QVQLVESGGGLVQAGGSLRLSCAASGSTFRRNAMGWYRQAPGKERELVAAITSTDSTYYADSVKGRFTISRDNAKNTVYLQMNSLKPEDTAVYYCAKGYWWGGEMGYWGQGSQVTVSS
- polyreactivity (PSR sort gate): low polyreactivity

Sequence: QVQLVESWGGLVQAGGSLRLSCAASGSIFDFNGMGCYRQAPGKERELVAAISGGGGSTYYADSVKGRFTISRDNAKNTVYLQMNSLKPEDTAVYYCAAAYSTYRFIYEYWGQATQVTVSS
- polyreactivity (PSR sort gate): high polyreactivity

Sequence: QVQLVESGGGLVQAGGSLRLSCADSGSTFVSNTMGWYRQAPGKERELVAAISSSGGSTYYADSVKGRFSISRDNAKNTVYLQMNSLKPEDTAVYYCAAYYRAYRRDYYWGQGTQVTVSS
- polyreactivity (PSR sort gate): high polyreactivity

Sequence: QVQLVDSGGGLVQAGGSLRLSCAASGRIFRYYAMGWYRQAPGKERELVAGINQSGGSTYYADSVKGRFTISRDNAKNTVYLQMNSLKPEDTAVYYCAAKVSWPKYDYWGQGTQVTVSS
- polyreactivity (PSR sort gate): low polyreactivity

Sequence: QVQLVESGGGLVQAGGSLRLSCAASGSTFAPYAMGWYRQAPGKERELVAAITWRGGSTYYADSVKGRFTISRDNAKYTVYLQMNSLKPEDTAVYYCNADGYVPDYEYWGQGTQVTVSS
- polyreactivity (PSR sort gate): high polyreactivity

Sequence: QVQHVESGGGLGQAGGSLRLSCAASGLTFSVYAMGWSRQAPGKERELYAAISYSGVSTYADSEKGRFTISRDNAKNTVYLQMNSLKPEDTAVYYCNARWVREGYRRWYDYWGQGTQVTVSS
- polyreactivity (PSR sort gate): low polyreactivity

Sequence: QVQLVESGGGLVQAGGSLRLSCAASGLIFPRYGMGWYRQAPGKERELVAAISRSGGNTYYADSVKGRFTISRDNAKNTVYLQMNSLKPEDTAVYYCAAYFSTAPKSQYKLDYRGQGTQVTVSS
- polyreactivity (PSR sort gate): high polyreactivity

Sequence: QVQLVESGGGLVQAGGSLRLSCAASGLTFYYYAMGWYRQAPGKERELVAAISSVGSTYYADSVKGRFTISRDNAKNTVYLQRNSLKPEDTAVYYCAAKSYWWHEDYWGQGTQVTVSS
- polyreactivity (PSR sort gate): low polyreactivity

Sequence: QVQLVESGGGLVQAGGSLRLSCAASGITFVYYAMGWYRQAPGKERELVAAITSDGGSTYYADSVKGRFTISRDNAKNTVYLQMNSLKPEDTAVYYCAAEWTSWSWWYGWYEFDYWGQGTQVTVSS
- polyreactivity (PSR sort gate): high polyreactivity

Sequence: QVQLVESGGGLVQAGGSLRLSCAASGRTFWKNTMGWYSQAPGKERELVAVISSGGVSTSYADSVTGRFTISRDKATNTVYLHMNSLKPEDTAVYYCAADGYYIGPYDYWGQGTQVTVSS
- polyreactivity (PSR sort gate): low polyreactivity

Sequence: QVQLVESGGGLVQAGGSLRLSCAASGYIFGYYAMGWYRQAPGQEREFVAAINWSGGSTYYADSVNGRFTISRDNAKNTVYLQMNSLKPEDTAVYYCARSYRSRVVYKFGYWGQGTQVTVSS
- polyreactivity (PSR sort gate): high polyreactivity

Sequence: QVQLVESGGGLVQAGGSLRLSCAASGSIFQIYAMGWYRPAPGKERELVAAINSGGITKYADSVKGRFTISRDNAKNTVYLQMNSLKPEDTAVYYCAKRYGWPYGRFDYWGQGTQVTVSS
- polyreactivity (PSR sort gate): low polyreactivity

Sequence: QLQLVETGGGLVQAGGSLRLSCAASGRIFQYYVMGWYRQAPGKERELVAAITSGGSTYYADSVKGRFTISRDNAKNTVYLQMNSLKPEDTAVYYCAAGYWYNFDYWGQGTQVTVSS
- polyreactivity (PSR sort gate): high polyreactivity

Sequence: QVQLVESGGGLVQAGGSLRLSCAASGRTFSRNAMGWYRQAPGKERELVAAISQRGVSTYYADSVKGRFTISRDNAKNTVYLQMNSLKPEDTAVYYCNTRGTYRYDYWGQGTQVTVSS
- polyreactivity (PSR sort gate): low polyreactivity

Sequence: QVQLVESGGGLVQAGGSLRLSCAASGLTFYYYAMGWYRQATGKERELVATITRSGGGTYFADSVKGRFTISRDNAKNTVYLQMNSLKPEDTAVYYCAADLSWYVLFSGLYDYWGQGTQVTVSS
- polyreactivity (PSR sort gate): high polyreactivity

Sequence: QVQLEESGGGLVQAGGSLRLSCAASGRIFWGYAMGWYRQAPGKERELVAGITYSGGSTYYADSVKGRFTISRDNAKNTVYLQMNSLKPEDTAVYYCAADATPGRGVDYWGQGTQVTVSS
- polyreactivity (PSR sort gate): high polyreactivity

Sequence: QVQLVESGGGLVQAGGSLRLSCAASGSTFFDYAMGWYRKAPGKERELVAAISRSGDTNYADSVKGRFTISRDNAKNTVYLQMKSLKPEDTAVYYCAKDWAYRRHWVGFYYWGQGTQVTVSS
- polyreactivity (PSR sort gate): low polyreactivity

Sequence: QVHLVESGGGLVHAGGSLRLSCAASRSTFRNYAMGWYRQAHGKEREFVATINWIGGTTYYADSVKGRFTLSRDNAKNTVDLQMNSLKPVDTGVYYCAAQFDYYPWGGYWGQGTQVTVSS
- polyreactivity (PSR sort gate): high polyreactivity

Sequence: QVQLVETGRGLVQAGGSLRLSCAASGGTFVVYSMGWYRQAPGTERELVAAITWIGDSTYYADSVKRRFTISRDNAKNTVYVQMNSLNPEDTAVYYCNKAKLYLVGRARFQTNYGLYDFWGQVTQVTVSS
- polyreactivity (PSR sort gate): low polyreactivity

Sequence: QVQLVESGGGLVQAGGSLRLSCADSGSIFAGNAMGWYRQAPGKERELVAAISRRGGSTYYADSVKGRFTISRDNAKNTVYLQMNSLKPEDTAVYYCNALLRYAYHAAYGYWGQGTQVTVSS
- polyreactivity (PSR sort gate): high polyreactivity

Sequence: QVQLVESGGGLVQAGGSLRLSCAASGSIFDNYAMGWYRPAPGKERELVAAITSGGSTYYADSVKGRFTISRDNAKNTVYLQMNSLKPEDTAVYYCAKDYKSIDDYWGQGTQVTVSS
- polyreactivity (PSR sort gate): low polyreactivity

Sequence: QVQLVESGGGLVQAGGSLRLSCAASGSILRTYTMGWYRQAPGKERELVAAISSSGGRTYYADSVKGRFTISRDNAKNTVYLQMNSLKPEDTAVYYCNAGGYRYRSYDYWGQGTQVTVSS
- polyreactivity (PSR sort gate): high polyreactivity

Sequence: QDQLVDSGGGLVQAGGSLRLSCAASGSIFWTYAMGWYRQAPGKERELVATITYSDGNTYYADSVKGRFTISRDNAMNTVYLQMNSLKPEDTAVYYCNADGIYASISGYRYDYWGQGTQVTVSS
- polyreactivity (PSR sort gate): low polyreactivity
